In publication PMC8849274 (Oncotarget, 2022):
Read-outs that look alike come from different tables or passages of the source.

Columns and labels:
Assay type in all cases: in vivo
[1] = Biodistribution in mice bearing CaSki xenografts; settings: female, athymic nude, mouse, iv, total radioactivity; for tissue uptake at 1 h: 1 h p.i.; for tissue uptake at 24 h: 24 h p.i.
Description: (§1) Animals were supplied by Charles River Laboratories (Wilmington, MA, USA), and were handled in compliance with the Guidelines for Care and Use of Research Animals established by the Division of Comparative Medicine and the Animal Studies Committee of Washington University School of Medicine under protocol #20–0214. Female athymic nude mice were inoculated on the right flank with 10 × 10^6 CaSki or 5 × 10^6 BxPC-3 cells. Tumors were allowed to grow until they approached approximately 100 mm^3 in volume. Radiolabeled peptides were diluted in saline to a dose of 0.37 MBq (10 μCi) per 100 μl. […] For blocking experiments, non-PEGylated peptide (100 μg in 100 μL saline) was injected ten minutes before radiotracer. Blood, lung, liver, spleen, kidney, muscle, heart, bone, and tumor were harvested. The amount of radioactivity in each organ was determined by gamma counting, and the percent injected dose per gram of tissue (% ID/g) was calculated.

[2] = Small animal PET/CT imaging, BxPC-3 tumors; settings: female, mouse, tumor (BxPC-3 xenograft), iv, total radioactivity, athymic nude mice bearing BxPC-3 tumors, 3.7 MBq i.v., without blocking, n = 3, read-out: SUVmax of tumors
Description: BxPC-3 cells (5 × 10^6) were inoculated in the right shoulder of female athymic nude mice 3–4 weeks before PET imaging sessions. All the experiments involving animals followed the Guidelines for Care and Use of Research Animals established by the Division of Comparative Medicine and the Animal Studies Committee of Washington University School of Medicine under protocol #20–0214. […] Mice were imaged with CT followed by static PET scans at 1, 4, and 24 h after tracer administration on an Inveon small animal PET/CT scanner (Siemens Medical Solutions, Malvern, PA, USA). Static images were collected for 20 min and reconstructed with the maximum a posteriori (MAP) reconstruction algorithm using the Inveon Reseach Workstation image display software (Siemens). Regions of interest (ROI) were selected based on co-registered anatomical CT images, and the associated radioactivity was measured using the Inveon software. The maximum standard uptake value (SUV) was calculated as the highest regional radioactivity concentration (nCi/cc) × animal weight (g)/decay-corrected amount of injected dose (nCi).

[3] = Biodistribution in mice bearing BxPC-3 xenografts; settings: female, athymic nude, mouse, iv, total radioactivity, BxPC-3 tumor-bearing mice, 1 h p.i.
Description: as §1

CC(C)C[C@H](NC(=O)[C@H](CC(=O)O)NC(=O)CNC(=O)[C@H](CCCNC(=N)N)NC(=O)[C@H](CC(C)C)NC(=O)[C@H](CC(N)=O)NC(=O)[C@@H]1CCCN1C(=O)[C@@H](NC(=O)[C@H](C)NC(=O)[C@H](CC(N)=O)NC(=O)CCOCCOCCOCCOCCOCCOCCOCCOCCOCCOCCOCCOCCOCCOCCOCCOCCOCCOCCOCCOCCOCCOCCOCCOCCOCCOCCOCCOCCNC(=O)CN1CCN(CC(=O)O)CCN(CC(=O)O)CCN(CC(=O)O)CC1)C(C)C)C(=O)N[C@@H](CCC(N)=O)C(=O)N[C@H](C(=O)N[C@@H](CC(C)C)C(=O)N[C@@H](C)C(=O)N[C@@H](CCC(N)=O)C(=O)N[C@@H](CCCCN)C(=O)N[C@H](C(=O)N[C@@H](C)C(=O)N[C@@H](CCCNC(=N)N)C(=O)N[C@H](C(=O)NCCOCCOCCOCCOCCOCCOCCOCCOCCOCCOCCOCCOCCOCCOCCOCCOCCOCCOCCOCCOCCOCCOCCOCCOCCOCCOCCOCCOCCC(N)=O)[C@@H](C)O)C(C)C)C(C)C [[^64Cu]Cu-DOTA-(PEG28)2-A20FMDV2, metal not drawn]
tissue uptake at 1 h ([1]; blood, CaSki tumor-bearing mice, 0.37 MBq i.v., gamma counting, mean, n = 4, read-out: Uptake in Blood): 0.22 %ID/g | tissue uptake at 24 h ([1]; blood, CaSki tumor-bearing mice, 0.37 MBq i.v., read-out: Radioactivity remaining in the blood): 0.26 ± 0.07 %ID/g | tissue uptake at 1 h ([1]; blood, CaSki tumor-bearing mice, non-PEGylated A20FMDV2 100 μg injected 10 min before radiotracer, read-out: Uptake in Blood, 1 h Block): 0.13 %ID/g | tissue uptake at 1 h ([1]; bone, CaSki tumor-bearing mice, 0.37 MBq i.v., gamma counting, mean, n = 4, read-out: Uptake in Bone): 0.62 %ID/g | tissue uptake at 1 h ([1]; bone, CaSki tumor-bearing mice, non-PEGylated A20FMDV2 100 μg injected 10 min before radiotracer, read-out: Uptake in Bone, 1 h Block): 0.27 %ID/g | tissue uptake at 1 h ([1]; heart, CaSki tumor-bearing mice, 0.37 MBq i.v., gamma counting, mean, n = 4, read-out: Uptake in Heart): 0.71 %ID/g | tissue uptake at 1 h ([1]; heart, CaSki tumor-bearing mice, non-PEGylated A20FMDV2 100 μg injected 10 min before radiotracer, read-out: Uptake in Heart, 1 h Block): 0.58 %ID/g | tissue uptake at 1 h ([1]; kidney, CaSki tumor-bearing mice, 0.37 MBq i.v., gamma counting, mean, n = 4, read-out: Uptake in Kidney): 42.7 ± 4.03 %ID/g | tissue uptake at 4 h ([1]; kidney, CaSki tumor-bearing mice, 0.37 MBq i.v., 4 h p.i.): 37 ± 10.6 %ID/g | tissue uptake at 24 h ([1]; kidney, CaSki tumor-bearing mice, 0.37 MBq i.v., read-out: Uptake in Kidney): 21 ± 4.67 %ID/g | tissue uptake at 1 h ([1]; kidney, CaSki tumor-bearing mice, non-PEGylated A20FMDV2 100 μg injected 10 min before radiotracer, read-out: Uptake in Kidney, 1 h Block): 35.5 %ID/g | tissue uptake at 1 h ([1]; liver, CaSki tumor-bearing mice, 0.37 MBq i.v., gamma counting, mean, n = 4, read-out: Uptake in Liver): 1.04 %ID/g | tissue uptake at 1 h ([1]; liver, CaSki tumor-bearing mice, non-PEGylated A20FMDV2 100 μg injected 10 min before radiotracer, read-out: Uptake in Liver, 1 h Block): 0.94 %ID/g | tissue uptake at 1 h ([1]; lung, CaSki tumor-bearing mice, 0.37 MBq i.v., gamma counting, mean, n = 4, read-out: Uptake in Lung): 1.37 %ID/g | tissue uptake at 1 h ([1]; lung, CaSki tumor-bearing mice, non-PEGylated A20FMDV2 100 μg injected 10 min before radiotracer, read-out: Uptake in Lung, 1 h Block): 1.19 %ID/g | tissue uptake at 1 h ([1]; muscle, CaSki tumor-bearing mice, 0.37 MBq i.v., gamma counting, mean, n = 4, read-out: Uptake in Muscle): 0.73 %ID/g | tissue uptake at 1 h ([1]; muscle, CaSki tumor-bearing mice, non-PEGylated A20FMDV2 100 μg injected 10 min before radiotracer, read-out: Uptake in Muscle, 1 h Block): 0.51 %ID/g | tissue uptake at 1 h ([1]; spleen, CaSki tumor-bearing mice, 0.37 MBq i.v., gamma counting, mean, n = 4, read-out: Uptake in Spleen): 0.17 %ID/g | tissue uptake at 1 h ([1]; spleen, CaSki tumor-bearing mice, non-PEGylated A20FMDV2 100 μg injected 10 min before radiotracer, read-out: Uptake in Spleen, 1 h Block): 0.13 %ID/g | tissue uptake at 1 h ([1]; tumor (CaSki xenograft), 0.37 MBq i.v., gamma counting, mean, n = 4, read-out: Tumor Uptake): 0.95 ± 0.29 %ID/g | tissue uptake at 1 h ([1]; tumor (CaSki xenograft), non-PEGylated A20FMDV2 100 μg injected 10 min before radiotracer, read-out: Tumor uptake, 1 h Block): 0.65 ± 0.17 %ID/g | SUV at 1 h ([2]; PET at 1 h): 0.44 ± 0.02 SUV | SUV at 4 h ([2]; PET at 4 h): 0.57 ± 0.15 SUV | SUV at 24 h ([2]; PET at 24 h): 0.69 ± 0.09 SUV | tissue uptake at 1 h ([3]; blood, 0.37 MBq i.v., gamma counting, mean, n = 4, read-out: Uptake in Blood): 0.28 %ID/g | tissue uptake at 1 h ([3]; blood, non-PEGylated A20FMDV2 100 μg injected 10 min before radiotracer, read-out: Uptake in Blood, 1 h Block): 0.24 %ID/g | tissue uptake at 1 h ([3]; bone, 0.37 MBq i.v., gamma counting, mean, n = 4, read-out: Uptake in Bone): 0.25 %ID/g | tissue uptake at 1 h ([3]; bone, non-PEGylated A20FMDV2 100 μg injected 10 min before radiotracer, read-out: Uptake in Bone, 1 h Block): 0.28 %ID/g | tissue uptake at 1 h ([3]; heart, 0.37 MBq i.v., gamma counting, mean, n = 4, read-out: Uptake in Heart): 1.01 %ID/g | tissue uptake at 1 h ([3]; heart, non-PEGylated A20FMDV2 100 μg injected 10 min before radiotracer, read-out: Uptake in Heart, 1 h Block): 0.34 %ID/g | tissue uptake at 1 h ([3]; 0.37 MBq i.v., gamma counting, mean, n = 4, read-out: Tumor Uptake): 2.12 ± 0.83 %ID/g | tissue uptake at 1 h ([3]; kidney, 0.37 MBq i.v., gamma counting, mean, n = 4, read-out: Uptake in Kidney): 38 %ID/g | tissue uptake at 1 h ([3]; kidney, non-PEGylated A20FMDV2 100 μg injected 10 min before radiotracer, read-out: Uptake in Kidney, 1 h Block): 27.6 %ID/g | tissue uptake at 1 h ([3]; liver, 0.37 MBq i.v., gamma counting, mean, n = 4, read-out: Uptake in Liver): 2.79 %ID/g | tissue uptake at 1 h ([3]; liver, non-PEGylated A20FMDV2 100 μg injected 10 min before radiotracer, read-out: Uptake in Liver, 1 h Block): 2.59 %ID/g | tissue uptake at 1 h ([3]; lung, 0.37 MBq i.v., gamma counting, mean, n = 4, read-out: Uptake in Lung): 1.73 %ID/g | tissue uptake at 1 h ([3]; lung, non-PEGylated A20FMDV2 100 μg injected 10 min before radiotracer, read-out: Uptake in Lung, 1 h Block): 1.14 %ID/g | tissue uptake at 1 h ([3]; muscle, 0.37 MBq i.v., gamma counting, mean, n = 4, read-out: Uptake in Muscle): 0.62 %ID/g | tissue uptake at 1 h ([3]; muscle, non-PEGylated A20FMDV2 100 μg injected 10 min before radiotracer, read-out: Uptake in Muscle, 1 h Block): 0.18 %ID/g | tissue uptake at 1 h ([3]; spleen, 0.37 MBq i.v., gamma counting, mean, n = 4, read-out: Uptake in Spleen): 0.3 %ID/g | tissue uptake at 1 h ([3]; spleen, non-PEGylated A20FMDV2 100 μg injected 10 min before radiotracer, read-out: Uptake in Spleen, 1 h Block): 0.34 %ID/g | tissue uptake at 1 h ([3]; tumor (BxPC-3 xenograft), non-PEGylated A20FMDV2 100 μg injected 10 min before radiotracer, read-out: Tumor uptake, 1 h Block): 0.71 ± 0.16 %ID/g
